# According to article PMC6347577 (Journal of the American Chemical Society, 2018):
# Target: the molecule itself
# Test: native MS
protein,measurement,value
"hepatitis B virus (HBV) capsid protein Cp149 (truncated form containing only the assembly domain), dimer (domain or fragment) MDIDPYKEFGATVELLSFLPSDFFPSVRDLLDTAAALYRDALESPEHCSPHHTALRQAILCWGDLMTLATWVGTNLEDPASRDLVVSYVNTNVGLKFRQLLWFHISCLTFGRETVLEYLVSFGVWIRTPPAYRPPNAPILSTLPETTVV",stoichiometry N,~90 dimers
